The results in this text go back to paper PMC3172050, “Structural and functional properties of NH2-terminal domain, core domain, and COOH-terminal extension of αA- and αB-crystallins” (Molecular Vision, 2011).

In general, stoichiometry N refers to a count of units in the complex or per binding partner.

Series [1] concerns the molecule itself. Put plainly: SEC-MALS; multiangle laser light scattering instrument (Wyatt) coupled to an HPLC system, called dynamic light scattering (MALS) by the paper; samples in 50 mM sodium phosphate pH 7.8, filtered through 0.22 um; 18 angles; absolute molar mass of each protein alone. (In general: SEC sorts molecules by how far they enter the pores of the column.)
Series [2] deals with the molecule itself. The series can be described thus: SDS-PAGE with western blot (anti-His tag antibody); purified His-tagged WT αB on an SDS-PAGE gel; 50 kDa band beside the monomer, both immunoreactive with the anti-His antibody.

B1: αB-crystallin core domain (residues 67-146) (domain or fragment, human, UniProt P02511 67-146, looked up)
chain: EMRLEKDRFSVNLDVKHFSPEELKVKVLGDVIEVHGKHEERQDEHGFISREFHRKYRIPADVDPLTITSSLSSDGVLTVN
notes: human αB-crystallin, core domain, residues 67-146; The pET 100D TOPO vector may add further N-terminal residues besides the His-tag; also called αB CD; not shown: His6, N-terminal, kept
On to B1, for which the binding result in series [1] is listed as “binds”.

B2: αB-crystallin NH2-terminal domain (residues 1-66) (domain or fragment, human, UniProt P02511 1-66, looked up)
chain: MDIAIHHPWIRRPFFPFHSPSRLFDQFFGEHLLESDLFPTSTSLSPFYLRPPSFLRAPSWFDTGLS
notes: human αB-crystallin, NH2-terminal domain, residues 1-66; The pET 100D TOPO vector may add further N-terminal residues besides the His-tag; also called αB NTD; not shown: His6, N-terminal, kept
Consider B2, for which the binding result in series [1] is reported as “binds”.

B3: wild type αB-crystallin (natural protein, human, UniProt P02511 1-175, looked up)
chain: MDIAIHHPWIRRPFFPFHSPSRLFDQFFGEHLLESDLFPTSTSLSPFYLRPPSFLRAPSWFDTGLSEMRLEKDRFSVNLDVKHFSPEELKVKVLGDVIEVHGKHEERQDEHGFISREFHRKYRIPADVDPLTITSSLSSDGVLTVNGPRKQVSGPERTIPITREEKPAVTAAPKK
notes: human αB-crystallin, wild type; Subcloned into pET 100D TOPO; the vector may add further N-terminal residues besides the His-tag; also called WT αB; not shown: His6, N-terminal, kept
On to B3, for which, in series [2], the “stoichiometry N” value is 2.
